The values that follow come from patent US20030170785A1 (ORTHO MCNEIL PHARMACEUTICAL, published 2003).

In assay [1] the target is CaV1.2 (α1C) L-type calcium channel subunit. Kind of assay: cell-based or functional assay.
Assay [2] deals with T1, Protein A Sepharose CL-4B (Pharmacia) (UniProt P38507 37-477).
T1 construct: Used alone (without anti-CaV1.2 antibody) as the negative control of the reciprocal immunoprecipitation; also called protein-A beads
Nature of the assay: immunoprecipitation from HEK293 lysates with protein-A beads only, Western blot with anti-HA Ab.
Description: Formation of a stable complex of α₂δ-4 with other channel subunits was tested by coimmunprecipitation. The α₂δ-4 subunit was first tagged with an HA epitope and co-transfected with CaV1.2 (α1C) and β₃ subunits into HEK cells. Co-immunoprecipitation was carried out with transient transfected HEK 293 cells by constructs of α1C, β₃ and α₂δ-4 tagged with HA epitope. Two days after the transfection, the cells (from two 150 mm plates) were harvested and washed with PBS. The cells were then resuspended in 2 ml of detergent extraction buffer: 1% (vol/vol) Nonidet P-40, 0.5% deoxycholate, 150 mM NaCl, 5 mM EDTA, 50 mM Tris-HCl (pH 8.0) and 20 μl of protease inhibitor cocktail (Sigma), followed 10 passages each through 20 and 26-gauge needles. Cell extracts were cleared by centrifugation. […] After incubated at 4° C. for overnight, the beads were precipitated by brief centrifugation, and washed 3 times with 1 ml of lysis buffer. Finally, 100 μl of 1×SDS loading buffer were added, and 20 μl were subjected to 4-20% SDS. The co-precipitated subunits were then analyzed by Western blot with indicated antibodies.

B1: human calcium channel α2δ-4 subunit (other)
chain: MAVALGTRRRDRVKLWADTFGGDLYNTVTKYSGSLLLQKKYKDVESSLKIEEVDGLELVRKFSEDMENMLRRKVEAVQNLVEAAEEADLNHEFNESLVFDYYNSVLINERDEKGNFVELGAEFLLESNAHFSNLPVNTSISSVQLPTNVYNKDPDILNGVYMSEALNAVFVENFQRDPTLTWQYFGSATGFFRIYPGIKWTPDENGVITFDCRNRGWYIQAATSPKDIVILVDVSGSMKGLRMTIAKHTITTILDTLGENDFVNIIAYNDYVHYIEPCFKGILVQADRDNREHFKLLVEELMVKGVGVVDQALREAFQILKQFQEAKQGSLCNQAIMLISDGAVEDYEPVFEKYNWPDCKVRVFTYLIGREVSFADRMKWIACNNKGYYTQISTLADTQENVMEYLHVLSRPMVINHDHDIIWTEAYMDSKLLSSQAQSLTLLTTVAMPVFSKKNETRSHGILLGVVGSDVALRELMKLAPRYKLGVHGYAFLNTNNGYILSHPDLRPLYREGKKLKPKPNYNSVDLSEVEWEDQAESLRTAMINRETGTLSMDVKVPMDKGKRVLFLTNDYFFTDISDTPFSLGAVLSRGHGEYILLGNTSVEEGLHDLLHPDLALAGDWIYCITDIDPDHRKLSQLEAMIRFLTRKDPDLECDEELVREVLFDAVVTAPMEAYWTALALNMSEESEHVVDMAFLGTRAGLLRSSLFVGSEKVSDRKFLTPEDEASVFTLDRFPLWYRQASEHPAGSFVFNLRWAEGPESAGEPMVVTASTAVAVTVDKRTAIAAAAGVQMKLEFLQRKFWAATRQCSTVDGPYTQSCEDSDLDCFVIDNNGFILISKRSRETGRFLGEVDGAVLTQLLSMGVFSQVTMYDYQAMCKPSSHHHSAAQPLVSPISAFLTATRWLLQELVLFLLEWSVWGSWYDRGAEAKSVFHHSHKHKKQDPLQPCDTEYPVFVYQPAIREANGIVECGPCQKVFVVQQIPNSNLLLLVTDPTCDCSIFPPVLQEATEVKYNASVKCDRMRSQKLRRRPDSCHAFHPEVRVEADRGWAGFSSPNPLCLGLCPCRQEHIGMPMNTPVPVLLGGNIRVYAL
As for B1, the “Ca^2+ influx (fluorescence change after depolarization with 50 mM KCl) in transfected HEK 293 cells” value in assay [1] came out at 6 fold.

B2: human calcium channel α2δ-4 subunit tagged with HA epitope (other, not shown: small tags and cut ends)
chain: B1 chain
notes: Expressed by transient co-transfection with CaV1.2 (α1C) and β3 in HEK293 cells and tested in detergent lysates; also called α2δ-4(HA)
For the molecule B2, the binding result in assay [2] was “no binding”.
